From article PMC3675490 come the findings set out here.

Read-outs that look alike come from different tables or passages of the source.

Series [1] deals with HfqFL Y25A (Escherichia coli, UniProt P0A6X3 1-102, Y25A). Description: fluorescence polarization. On the technique in general: In fluorescence polarisation assays a small probe gives low polarisation when free and higher when bound to something large.
In series [2] the target is HfqFL F42S (Escherichia coli, UniProt P0A6X3 1-102, F42S). Description: fluorescence polarization.
Series [3] addresses T1, Hfq65 (Escherichia coli, UniProt P0A6X3 1-65). The series can be described thus: X-ray crystallography.
The target in series [4] is T2, Hfq65 R16A/R17A (Escherichia coli, UniProt P0A6X3 1-65, R16A;R17A). Description: NMR titration.
Series [5] addresses T2, Hfq65 R16A/R17A. Description: NMR titration. This is another data set of the same source.
Series [6] concerns the target T1, Hfq65. The series can be described thus: X-ray crystallography. The source holds these as a separate data set.
The target of series [7] is HfqFL WT (Escherichia coli, UniProt P0A6X3 1-102). The series can be described thus: EMSA. A general note: Mobility shift assays separate free from complexed probe on a gel.

Turning to AUUUUUUA (ssRNA) [AU6A], the binding result in series [1] is on record as “binds”.
On to AACAACAAG (ssRNA) [rpoS-AC], for which the binding result in series [2] is given as “binds”.
On to AUUUUUUA (ssRNA) [AU6A (unlabeled)], for which the binding result in series [3] and in series [4] was “binds” throughout.
Take AAAAAAA (ssRNA) [A7]: the binding result in series [2] is “binds”.
AACAACAAG (ssRNA) [rpoS-AC (unlabeled)]: in series [5], the binding result is listed as “binds”.
On to AAAAAAA (ssRNA) [A7 (unlabeled)], for which, in series [6], the binding result is recorded as “binds”.
In the case of GGGAACAACAAGAAGUUAAGGCGGGGCAAAAAAUA (ssRNA) [rpoS-AA], the binding result in series [7] is “binds”.
